Data set [1] has as its system HeLa Kyoto. Put plainly: solubility in G1/S (NP-40 vs SDS abundance) (log2 ratio); higher = more soluble. The conditions noted are these: cell cycle stage: G1/S.
In data set [2] the test system is HeLa Kyoto. Put plainly: melting temperature (median over replicates), in situ; higher = more thermally stable.
The subject of data set [3] is HeLa Kyoto. Put plainly: solubility change mitosis vs G1/S (difference of NP-40 vs SDS log2 ratios) (log2 ratio difference); higher = more soluble in mitosis.
For data set [4], the system named is HeLa Kyoto. Description: thermal stability score vs G1/S (z-score of summed log2 fold changes over temperatures); higher = more thermally stable than in G1/S.
The mark [5] stands for this setting: cell cycle stage: early G1 (4.5 h after nocodazole release).
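Throughout, for melting temperature (median over replicates), in situ: HeLa Kyoto cells synchronized by double thymidine or nocodazole block, proteins quantified by TMT10plex mass spectrometry, three independent biological replicates.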
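Throughout, for solubility change mitosis vs G1/S (difference of NP-40 vs SDS log2 ratios): synchronized HeLa Kyoto cells (double thymidine block for G1/S, nocodazole release for mitosis), protein amounts in NP-40 versus SDS lysates quantified by mass spectrometry, three biological replicates.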
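Throughout, for solubility in G1/S (NP-40 vs SDS abundance): HeLa Kyoto cells arrested at G1/S by double thymidine block, proteins quantified by TMT10plex mass spectrometry in mild NP-40 versus SDS extracts, three biological replicates.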
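Throughout, for thermal stability score vs G1/S (z-score of summed log2 fold changes over temperatures): synchronized HeLa Kyoto cells, proteins quantified by TMT10plex mass spectrometry, three biological replicates, mitosis taken 0.5 h after nocodazole release, G1/S directly after double thymidine block.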

As to “MPHSYPALSAEQKKELSDIALRIVAPGKGILAADESVGSMAKRLSQIGVENTEENRRLYRQVLFSADDRVKKCIGGVIFFHETLYQKDDNGVPFVRTIQDKGIVVGIKVDKGVVPLAGTDGETTTQGLDGLSERCAQYKKDGADFAKWRCVLKISERTPSALAILENANVLARYASICQQNGIVPIVEPEILPDGDHDLKRCQYVTEKVLAAVYKALSDHHVYLEGTLLKPNMVTPGHACPIKYTPEEIAMATVTALRRTVPPAVPGVTFLSGGQSEEEASFNLNAINRCPLPRPWALTFSYGRALQASALNAWRGQRDNAGAATEEFIKRAEVNGLAAQGKYEGSGEDGGAAAQSLYIANHAY [ALDOC]”, the “solubility in G1/S (log2)” value in the data set with HeLa Kyoto [1] worked out at 0.202. The melting temperature in the data set with HeLa Kyoto [2] (cell cycle stage: G1/S) came out at 56.9 °C; with HeLa Kyoto [2] (cell cycle stage: mitosis), 57 °C. For the same substance, the “solubility change mitosis (log2)” value with HeLa Kyoto [3] is -0.0816. Further, the thermal stability score was -1.31 in the data set with HeLa Kyoto [4] (setting [5]) and -2.38 in the data set with HeLa Kyoto [4] (cell cycle stage: mitosis).
On to ALDH3A2, for which, in the data set with HeLa Kyoto [1], the “solubility in G1/S (log2)” value is -0.186. In addition, the melting temperature is 51 °C in the data set on HeLa Kyoto [2] (cell cycle stage: G1/S) and 50.7 °C in the data set with HeLa Kyoto [2] (cell cycle stage: mitosis). The “solubility change mitosis (log2)” value in the data set on HeLa Kyoto [3] was -0.0531. In addition, the thermal stability score is -0.835 with HeLa Kyoto [4] (setting [5]) and -0.622 in the data set with HeLa Kyoto [4] (cell cycle stage: mitosis).
As to “MKLKDTKSRPKQSSCGKFQTKGIKVVGKWKEVKIDPNMFADGQMDDLVCFEELTDYQLVSPAKNPSSLFSKEAPKRKAQAVSEEEEEEEGKSSSPKKKIKLKKSKNVATEGTSTQKEFEVKDPELEAQGDDMVCDDPEAGEMTSENLVQTAPKKKKNKGKKGLEPSQSTAAKVPKKAKTWIPEVHDQKADVSAWKDLFVPRPVLRALSFLGFSAPTPIQALTLAPAIRDKLDILGAAETGSGKTLAFAIPMIHAVLQWQKRNAAPPPSNTEAPPGETRTEAGAETRSPGKAEAESDALPDDTVIESEALPSDIAAEARAKTGGTVSDQALLFGDDDAGEGPSSLIREKPVPKQNENEEENLDKEQTGNLKQELDDKSATCKAYPKRPLLGLVLTPTRELAVQVKQHIDAVARFTGIKTAILVGGMSTQKQQRMLNRRPEIVVATPGRLWELIKEKHYHLRNLRQLRCLVVDEADRMVEKGHFAELSQLLEMLNDSQYNPKRQTLVFSATLTLVHQAPARILHKKHTKKMDKTAKLDLLMQKIGMRGKPKVIDLTRNEATVETLTETKIHCETDEKDFYLYYFLMQYPGRSLVFANSISCIKRLSGLLKVLDIMPLTLHACMHQKQRLRNLEQFARLEDCVLLATDVAARGLDIPKVQHVIHYQVPRTSEIYVHRSGRTARATNEGLSLMLIGPEDVINFKKIYKTLKKDEDIPLFPVQTKYMDVVKERIRLARQIEKSEYRNFQACLHNSWIEQAAAALEIELEEDMYKGGKADQQEERRRQKQMKVLKKELRHLLSQPLFTESQKTKYPTQSGKPPLLVSAPSKSESALSCLSKQKKKKTKKPKEPQPEQPQPSTSAN [DDX24]”, the “solubility in G1/S (log2)” value with HeLa Kyoto [1] is -1.47. Further, the melting temperature with HeLa Kyoto [2] (cell cycle stage: G1/S) is 49.9 °C; with HeLa Kyoto [2] (cell cycle stage: mitosis), 50.5 °C. For the same substance, the “solubility change mitosis (log2)” value in the data set on HeLa Kyoto [3] stood at 1.07. In addition, the thermal stability score with HeLa Kyoto [4] (setting [5]) was -0.338; in the data set on HeLa Kyoto [4] (cell cycle stage: mitosis), 1.04.
As for “MGKIALQLKATLENITNLRPVGEDFRWYLKMKCGNCGEISDKWQYIRLMDSVALKGGRGSASMVQKCKLCARENSIEILSSTIKPYNAEDNENFKTIVEFECRGLEPVDFQPQAGFAAEGVESGTAFSDINLQEKDWTDYDEKAQESVGIYEVTHQFVKC [C1ORF123]”, the “solubility in G1/S (log2)” value in the data set with HeLa Kyoto [1] is -0.207. Besides, the melting temperature in the data set with HeLa Kyoto [2] (cell cycle stage: G1/S) is 52.2 °C; in the data set on HeLa Kyoto [2] (cell cycle stage: mitosis), 52.1 °C. Further, the “solubility change mitosis (log2)” value in the data set with HeLa Kyoto [3] is -0.125. In addition, the thermal stability score in the data set on HeLa Kyoto [4] (setting [5]) is -0.132; with HeLa Kyoto [4] (cell cycle stage: mitosis), 0.084.
As for “MGSPLRFDGRVVLVTGAGAGLGRAYALAFAERGALVVVNDLGGDFKGVGKGSLAADKVVEEIRRRGGKAVANYDSVEEGEKVVKTALDAFGRIDVVVNNAGILRDRSFARISDEDWDIIHRVHLRGSFQVTRAAWEHMKKQKYGRIIMTSSASGIYGNFGQANYSAAKLGLLGLANSLAIEGRKSNIHCNTIAPNAGSRMTQTVMPEDLVEALKPEYVAPLVLWLCHESCEENGGLFEVGAGWIGKLRWERTLGAIVRQKNHPMTPEAVKANWKKICDFENASKPQSIQESTGSIIEVLSKIDSEGGVSANHTSRATSTATSGFAGAIGQKLPPFSYAYTELEAIMYALGVGASIKDPKDLKFIYEGSSDFSCLPTFGVIIGQKSMMGGGLAEIPGLSINFAKVLHGEQYLELYKPLPRAGKLKCEAVVADVLDKGSGVVIIMDVYSYSEKELICHNQFSLFLVGSGGFGGKRTSDKVKVAVAIPNRPPDAVLTDTTSLNQAALYRLSGDWNPLHIDPNFASLAGFDKPILHGLCTFGFSARRVLQQFADNDVSRFKAIKARFAKPVYPGQTLQTEMWKEGNRIHFQTKVQETGDIVISNAYVDLAPTSGTSAKTPSEGGKLQSTFVFEEIGRRLKDIGPEVVKKVNAVFEWHITKGGNIGAKWTIDLKSGSGKVYQGPAKGAADTTIILSDEDFMEVVLGKLDPQKAFFSGRLKARGNIMLSQKLQMILKDYAKL [HSD17B4]”, in the data set on HeLa Kyoto [1], the “solubility in G1/S (log2)” value was 0.00461. In addition, the melting temperature in the data set on HeLa Kyoto [2] (cell cycle stage: G1/S) worked out at 54.2 °C; in the data set with HeLa Kyoto [2] (cell cycle stage: mitosis) it was 54.1 °C. Besides, the “solubility change mitosis (log2)” value in the data set on HeLa Kyoto [3] is -0.0933. In addition, the thermal stability score was determined as 0.589 in the data set with HeLa Kyoto [4] (setting [5]) and 0.868 with HeLa Kyoto [4] (cell cycle stage: mitosis).
Turning to “MFLYNLTLQRATGISFAIHGNFSGTKQQEIVVSRGKILELLRPDPNTGKVHTLLTVEVFGVIRSLMAFRLTGGTKDYIVVGSDSGRIVILEYQPSKNMFEKIHQETFGKSGCRRIVPGQFLAVDPKGRAVMISAIEKQKLVYILNRDAAARLTISSPLEAHKANTLVYHVVGVDVGFENPMFACLEMDYEEADNDPTGEAAANTQQTLTFYELDLGLNHVVRKYSEPLEEHGNFLITVPGGSDGPSGVLICSENYITYKNFGDQPDIRCPIPRRRNDLDDPERGMIFVCSATHKTKSMFFFLAQTEQGDIFKITLETDEDMVTEIRLKYFDTVPVAAAMCVLKTGFLFVASEFGNHYLYQIAHLGDDDEEPEFSSAMPLEEGDTFFFQPRPLKNLVLVDELDSLSPILFCQIADLANEDTPQLYVACGRGPRSSLRVLRHGLEVSEMAVSELPGNPNAVWTVRRHIEDEFDAYIIVSFVNATLVLSIGETVEEVTDSGFLGTTPTLSCSLLGDDALVQVYPDGIRHIRADKRVNEWKTPGKKTIVKCAVNQRQVVIALTGGELVYFEMDPSGQLNEYTERKEMSADVVCMSLANVPPGEQRSRFLAVGLVDNTVRIISLDPSDCLQPLSMQALPAQPESLCIVEMGGTEKQDELGERGSIGFLYLNIGLQNGVLLRTVLDPVTGDLSDTRTRYLGSRPVKLFRVRMQGQEAVLAMSSRSWLSYSYQSRFHLTPLSYETLEFASGFASEQCPEGIVAISTNTLRILALEKLGAVFNQVAFPLQYTPRKFVIHPESNNLIIIETDHNAYTEATKAQRKQQMAEEMVEAAGEDERELAAEMAAAFLNENLPESIFGAPKAGNGQWASVIRVMNPIQGNTLDLVQLEQNEAAFSVAVCRFSNTGEDWYVLVGVAKDLILNPRSVAGGFVYTYKLVNNGEKLEFLHKTPVEEVPAAIAPFQGRVLIGVGKLLRVYDLGKKKLLRKCENKHIANYISGIQTIGHRVIVSDVQESFIWVRYKRNENQLIIFADDTYPRWVTTASLLDYDTVAGADKFGNICVVRLPPNTNDEVDEDPTGNKALWDRGLLNGASQKAEVIMNYHVGETVLSLQKTTLIPGGSESLVYTTLSGGIGILVPFTSHEDHDFFQHVEMHLRSEHPPLCGRDHLSFRSYYFPVKNVIDGDLCEQFNSMEPNKQKNVSEELDRTPPEVSKKLEDIRTRYAF [SF3B3]”, in the data set on HeLa Kyoto [1], the “solubility in G1/S (log2)” value is -0.389. The results for the melting temperature in the data set with HeLa Kyoto [2] (cell cycle stage: G1/S) and with HeLa Kyoto [2] (cell cycle stage: mitosis) were 52.4 °C and 51.6 °C, respectively. For the same substance, in the data set on HeLa Kyoto [3], the “solubility change mitosis (log2)” value came to 0.0933. Moreover, the thermal stability score in the data set on HeLa Kyoto [4] (setting [5]) is -1; in the data set on HeLa Kyoto [4] (cell cycle stage: mitosis), -1.81.

(Values after the supplement of paper PMC5998384.)
